We go through 1 protein from publication PMC3174154, “Protein-Protein Interactions in Crystals of the Human Receptor-Type Protein Tyrosine Phosphatase ICA512 Ectodomain” (PLoS ONE, 2011).

Series [1] deals with the molecule itself. Description: SEC; Rs against protein concentration in the eluting peak; monomer-dimer equilibrium fitted (dimer to monomers); the text names size exclusion chromatography and light scattering. A general note: SEC sorts molecules by how far they enter the pores of the column.
Series [2] concerns the molecule itself. In words: SEC; Superose 12, 20°C, 20 mM sodium phosphate, 150 mM NaCl, pH 7.0; each variant injected at 500 µM in 100 µl, alone or preincubated and injected together.

B1: mature ectodomain of ICA512 (ME ICA512), wild type, residues 470 to 558 (domain or fragment, human, UniProt Q16849 470-558, looked up)
chain: EYGYIVTDQKPLSLAAGVKLLEILAEHVHMSSGSFINISVVGPALTFRIRHNEQNLSLADVTQQAGLVKSELEAQTGLQILQTGVGQRE
notes: the results say 470 to 556; The methods give 470-558, the results 470-556; also called wild-type ME ICA512; wild type variant
For orientation: Kd means the concentration at which binding is half-saturated. Read a low Kd as higher affinity. Broadly, the stoichiometry N is the number of molecules, sites or subunits per partner or assembly. Protein B1 gave a Kd in series [1] of 800 nM. Besides, the “stoichiometry N” value in series [2] came out at 2.
